In patent US20260234269A1 (TRUEBINDING, published 2026):

Assays:
[1] = target: T1, Human Galectin-3 protein (Acro Biosystems, GA3-H5129) (human, UniProt P17931 2-250); experiment: ELISA, hGal3 coated, competitor hTIM3 (FIG. 24)
T1 construct: Bought protein; also called hGal3; Gal3; not shown: linker-spaced 6-histidine tag

[2] = target: T1, Human Galectin-3 protein (Acro …); experiment: ELISA, hGal3 coated, antibody 3 ug/mL, competitor hTIM3
[3] = target: T1, Human Galectin-3 protein (Acro …); experiment: SPR Biacore T200, antibody captured, Galectin-3 analyte
hGal3 peptide 1 = target: T2, hGal3 peptide 1 (human); experiment: peptide ELISA, 20-mer library (Epitope Mapping)
T2 construct: also called peptide 1 of Gal3
T2 peptide: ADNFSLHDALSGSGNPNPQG

hGal3 peptide 7 = target: T3, hGal3 peptide 7 (human); experiment: peptide ELISA, 20-mer library (Epitope Mapping)
T3 peptide: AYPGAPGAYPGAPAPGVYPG

hGal3 peptide 8 = target: T4, hGal3 peptide 8 (human); experiment: peptide ELISA, 20-mer library (Epitope Mapping)
T4 peptide: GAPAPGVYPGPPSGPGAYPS

hGal3 peptide 6 = target: T5, hGal3 peptide 6 (human); experiment: peptide ELISA, 20-mer library (Epitope Mapping)
T5 peptide: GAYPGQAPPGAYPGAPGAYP

hGal3 peptide 4 = target: T6, hGal3 peptide 4 (human); experiment: peptide ELISA, 20-mer library (Epitope Mapping)
T6 peptide: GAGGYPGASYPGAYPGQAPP

[4] = target: T1, Human Galectin-3 protein (Acro …); experiment: ELISA titration, blocking of GAL3-TIM3; competitor TIM3
hGal3 peptide 2 = target: T7, hGal3 peptide 2 (human); experiment: peptide ELISA, 20-mer library (Epitope Mapping)
T7 peptide: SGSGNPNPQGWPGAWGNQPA

B1: 24D12.2H9 (antibody, V domains shown)
VH: QVQLKQSGPGLVQPSQSLSITCTVSGFSLTSYGVHWVRQAPGKGLEWLGVIWSGGSTDYNAAFMSRLSISKDNSKSQVFFKMNSLQADDTAIYYCAKSPDGYDVAWFGYWGQGTLVTVSA
VL: DIVMTQSHKFMSTSVGDRVSITCKASQDVRTAVAWYQQKPGQSPKLLIYWASTRHTGVPDRFTGSGSGTDFTLTLSNVQSEDLADYFCQQYSSYPWTFGGGTKLEIK
notes: murine antibody
- reduction of TIM3-GAL3 binding [1]: ≤ 25%
- GAL3-TIM3 Blocking @ 3 ug/mL [2]: 0%
- Kd [3]: 4.13 nM

B2: 13G4.2F8 (antibody, V domains shown)
VH: QVQLQQPGAELVKPGASVKLSCKASGYTFTSYWMHWVKQRPGQGLEWIGMIHPNSGSTDYNEKFKNKATLNVDKSSSTAYIQLSSLTSEDSAVYYCTRWGIYYYARDYWGQGTTLTVSS
VL: DIVMTQSQKFMSTSVGERVSITCKASQNVGTNVAWYQQKAGQSLELLIYGASNRHTGVPDRFTGSGSGTDFTLTITNVQSEDMTNYFCEQYSNFPLTFGAGTKLELK
notes: murine antibody
- reduction of TIM3-GAL3 binding [1]: ≤ 25%
- GAL3-TIM3 Blocking @ 3 ug/mL [2]: 0%
- Kd [3]: 2.53 nM

B3: 20D11.2C6 (antibody, V domains shown)
VH: EVQLQQSGPELVKPGASVKISCKASGYTFTDFYINWVKQSHGKSLEWIGDINPKNGGINYNPKFKIKATLTVDKSSSTSYMDLRGLTSEDSAVYYCTSGYGFPYWGQGTLVTVSA
VL: DIQMNQSPSSLSASLGDTITITCRASQNIYIWLSWYQQKPGNIPKLLIYKASNLHTGVPSRFSGSGSGTDFTLTISTLQPEDIATYFCLQGQSYPLTFGAGTKLEMK
notes: murine antibody
- binding result (hGal3 peptide 1): binds
- binding result (hGal3 peptide 7): binds
- binding result (hGal3 peptide 8): binds
- GAL3-TIM3 Blocking @ 3 ug/mL [2]: 40%
- Kd [3]: 27.8 nM

B4: 15G7.2A7 (antibody, V domains shown)
VH: EVQLQQSGPELVKPGASVKISCKASGYTFTDYYMNWVKQSHGKSLEWIGDINPNNGGTNYNQKFKGKATLTVDKSSSTAYMELRSLTSEDSAVYYCTSGYGFPYWGQGTLVTVSA
VL: DIQMNQSPSSLSASLGDTISITCRASQNINIWLSWYQQKPGNIPQLLIYKASNLHTGVPSRFSGSGSGTDFTLTISSLQPEDIATYYCLQGQSYPLTFGAGTKLVMK
notes: murine antibody
- binding result (hGal3 peptide 1): binds
- binding result (hGal3 peptide 7): binds
- binding result (hGal3 peptide 8): binds
- GAL3-TIM3 Blocking @ 3 ug/mL [2]: 48%
- Kd [3]: 11.3 nM

B5: 12G5.D7 (antibody, V domains shown)
VH: QVQLKQSGAELVRPGASVKLSCKASGYTFTDYYINWVKQRPGQGLEWIARIYPGTGNTDYNEKFKGRATLTAEKSSSTAYMQLSSLTSEDSAVYFCARFAYYYGSGGYFDYWGHGTTLTVSS
VL: DILMTQSPSSMSVSLGDTVSITCHASQGINSNMGWLQQKPGKSFKGLIYHATNLEDGVPSRFSGSGSGADYSLTISSLESEDFADYYCVQYAQFPPTFGSGTKLEIK
notes: murine antibody
- reduction of TIM3-GAL3 binding [1]: ≤ 25%
- GAL3-TIM3 Blocking @ 3 ug/mL [2]: 12%
- Kd [3]: 1.9 nM

B6: 13H12.2F8 (antibody, V domains shown)
VH: QIQLVQSGPELKKPGETVKISCKASGYTFTTYGMSWVKQAPGKGLKWMGWINTYSGVPTYADDFKGRFAFSLETSASTAYLQINNLKNEDTATYFCAVPYEYDGAYWGQGTLVTVSA
VL: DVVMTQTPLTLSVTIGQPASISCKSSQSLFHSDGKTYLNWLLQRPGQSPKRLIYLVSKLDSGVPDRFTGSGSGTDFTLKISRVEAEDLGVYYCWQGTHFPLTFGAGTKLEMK
notes: murine antibody
- binding result (hGal3 peptide 6): binds
- binding result (hGal3 peptide 7): binds
- GAL3-TIM3 Blocking @ 3 ug/mL [2]: 57%
- Kd [3]: 6.07 nM

B7: 19D9.2E5 (antibody, V domains shown)
VH: QIQLVQSGPELKKPGETVKISCKASGYTFTTYGMGWVKQAPGKGLKWMGWINTYSGVPTYADDFKGRFAFSLETSTSTAYLQINNLKNEDMATYFCATPYEYDGAYWGQGTLVTVSA
VL: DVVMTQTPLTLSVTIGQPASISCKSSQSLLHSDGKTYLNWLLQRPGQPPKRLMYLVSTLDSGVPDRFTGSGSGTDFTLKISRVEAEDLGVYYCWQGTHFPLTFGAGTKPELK
notes: murine antibody
- binding result (hGal3 peptide 6): binds
- binding result (hGal3 peptide 7): binds
- GAL3-TIM3 Blocking @ 3 ug/mL [2]: 34%
- Kd [3]: < 1 nM

B8: 14H10.2C9 (antibody, V domains shown)
VH: QIQLVQSGPELKKPGETVKISCKASGYTFTTYGMGWVKQAPGKDLKWMGWINTYSGVPTYADDFKGRFAFSLETSASTAYLQISNLKNEDTATYFCSTPYEYDGAYWGQGTLVTVSA
VL: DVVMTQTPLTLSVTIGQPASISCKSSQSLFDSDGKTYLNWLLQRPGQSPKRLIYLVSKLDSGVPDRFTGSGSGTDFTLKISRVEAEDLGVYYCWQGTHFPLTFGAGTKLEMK
notes: murine antibody
- binding result (hGal3 peptide 6): binds
- binding result (hGal3 peptide 7): binds
- GAL3-TIM3 Blocking @ 3 ug/mL [2]: 44%
- Kd [3]: 0.562 nM

B9: 4A11.2B5 (antibody, V domains shown)
VH: QVQLQQSGPELVKPGASVKISCKASGYSFTNYYIHWVKQRPGQGLEWIGWIYPGSGNTNYNEKFKGKATLTADTSSSTTNMQLSSLTSEDSAVYYCSTAPGGFDVWGSGTTVTVSS
VL: DIVMTQAAFSNPVTLGTSASISCRSSKSLLHSDGITYLYWYLQRPGQSPQLLIYRMSNLASGVPDRFSGSGSGTDFTLRISRVEAEDVGVYYCAQMLEFPLTFGAGTKLELK
notes: murine antibody; parent of IMT006-1 and IMT006-5
- binding result (hGal3 peptide 6): binds
- GAL3-TIM3 Blocking @ 3 ug/mL [2]: 48%
- Kd [3]: 5.22 nM

B10: 3B11.2G2 (antibody, V domains shown)
VH: QIQLVQSGPELKKPGETVKISCKTSGYKFKTYVMSWVKQAPGKALKWMGWINTYSGVPTYADDFKGRFAFSLETSASTAYLEIINLKNEDTATYFCARDGNYGDPMDYWGQGTSVTVSS
VL: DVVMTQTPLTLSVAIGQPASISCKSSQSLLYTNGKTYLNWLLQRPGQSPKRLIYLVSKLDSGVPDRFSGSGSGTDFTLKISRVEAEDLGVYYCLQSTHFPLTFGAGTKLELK
notes: murine antibody; also called 3B11.2D2
- binding result (hGal3 peptide 4): binds
- binding result (hGal3 peptide 6): binds
- GAL3-TIM3 Blocking @ 3 ug/mL [2]: 33%
- Kd [3]: < 1 nM

B11: 13A12.2E5 (antibody, V domains shown)
VH: QIQLVQSGPELKKPGETVKISCKTSGYKFKTYVMSWVKQAPGKALKWMGWINTYSGVPTYADDFKGRFAFSLETSASTAYLEIINLKNEDTATYFCARDGNYGDPMDYWGQGTSVTVSS
VL: DVVMTQTPLTLSVAIGQPASISCKSSQSLLYTNGKTYLNWLLQRPGQSPKRLIYLLSKLDSGVPDRFSASGSGTDFTLKISRVEAEDLGVYYCLQSTHFPLTFGAGTKLEMK
notes: murine antibody
- binding result (hGal3 peptide 4): binds
- binding result (hGal3 peptide 6): binds
- GAL3-TIM3 Blocking @ 3 ug/mL [2]: 35%
- Kd [3]: 8.2 nM

B12: IMT001-4 (antibody, IgG4, V domains shown)
VH: QVQLVQSGSELKKPGASVKVSCKASGYTFTNYGMNWVRQAPGQGLKWMGWINTNTGEPTYVEEFTGRFVFSLETSVSTAYLQISSLKAEDTAVYFCAPYDNFFAYWGQGTTVTVSS
VL: DIVLTQSPLSLPVTPGEPASISCRSSKSLLYKDGKTYLNWFLQKPGQSPQLLIYLMSTHASGVPDRFSGSGSGTDFTLKISRVEAEDVGVYYCQQLVDYPLTFGGGTKLEIKR
notes: also called HuIMT001-4
- IC50 [4]: 5.6 nM

B13: IMT006-5 (antibody, V domains shown)
VH: QVQLVQSGAEVKKPGASVKVSCKASGYSFTNYYMHWVRQAPGQRLEWMGWIYPGSGNTNYNEKFQGRVTITADTSASTAYMELSSLRSEDTAVYYCSTAPGGFDVWGQGTTVTVSS
VL: DIVMTQTPLSLSVTPGQPASISCKSSKSLLHSDGITYLYWYLQKPGQSPQLLIYRMSNLASGVPDRFSGSGSGTDFTLKISRVEAEDVGVYYCAQMLEFPLTFGQGTKLEIKR
notes: humanized antibody derived from 4A11.2B5
- IC50 [4]: 4.1 nM

B14: IMT006-8 (antibody, V domains shown)
VH: QVQLVQSGAEVKKPGASVKVSCKASGYSFTNYYIHWVRQAPGQRLEWMGWIYPGSGNTNYNEKFQGRVTLTADTSASTTYMELSSLRSEDTAVYYCSTAPGGFDVWGQGTTVTVSS
VL: DIVMTQSPLSLPVTPGEPASISCRSSKSLLHSDGITYLYWYLQKPGQSPQLLIYRMSNLASGVPDRFSGSGSGTDFTLKISRVEAEDVGVYYCAQMLEFPLTFGQGTKLEIKR
notes: humanized antibody
- IC50 [4]: 2.8 nM

B15: IMT006-1 (antibody, V domains shown)
VH: QVQLVQSGAEVKKPGASVKVSCKASGYSFTNYYMHWVRQAPGQGLEWMGWIYPGSGNTNYNEKFQGRVTMTADTSISTAYMELSRLRSDDTAVYYCSTAPGGFDVWGQGTTVTVSS
VL: DIVMTQTPLSLSVTPGQPASISCKSSKSLLHSDGITYLYWYLQKPGQSPQLLIYRMSNLASGVPDRFSGSGSGTDFTLKISRVEAEDVGVYYCAQMLEFPLTFGQGTKLEIKR
notes: humanized antibody derived from 4A11.2B5; also called HuIMT006-1
- IC50 [4]: 26.5 nM

B16: 4G2.2G6 (antibody, V domains shown)
VH: QIQLVQSGPDLKKPGETVKISCKASGYTFTTYVMSWVKQAPGKDLKWMGWINTHSGVPTYADDFKGRFDFSLETSANTAFLQINNLKNEDTATYFCTRDGNDGDAMDNWGQGTSVTVSS
VL: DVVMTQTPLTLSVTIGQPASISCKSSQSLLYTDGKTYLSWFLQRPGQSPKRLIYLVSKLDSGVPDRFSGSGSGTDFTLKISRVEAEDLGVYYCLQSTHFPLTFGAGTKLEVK
notes: murine antibody
- binding result (hGal3 peptide 4): binds
- GAL3-TIM3 Blocking @ 3 ug/mL [2]: 48%
- Kd [3]: < 1 nM

B17: 7D8.2D8 (antibody, V domains shown)
VH: EVQLVESGGGLVKPGGSLKLSCAASGFTFSSYAMSWVRQTPEKRLEWVATISDGGIYTYYPDNVKGRFTISRDNAKNNLFLQMSHLKSEDTAMYYCVRDGGYWGQGTTLTVSS
VL: DVLMTQTPLSLPVSLGDQASISCRSSQSIVHSNGNTYLEWYLQKPGQSPKLLIYKVSNRFSGVPDRFSGSGSGTDFTLKISRVEAEDLGVYYCFQGSHVPLTFGAGTKLELK
notes: murine antibody
- binding result (hGal3 peptide 2): binds
- binding result (hGal3 peptide 7): binds
- GAL3-TIM3 Blocking @ 3 ug/mL [2]: 12%
- Kd [3]: 2.49 nM

B18: 15F10.2D6 (antibody, V domains shown)
VH: EVQLVESGGGLVKPGGSLKLSCAASGFAFSSYAMSWVRQTPEKRLEWVATISDGGVYTYYTDHVKGRFTISRDNAEDNLYLQMSHLKSEDTAMYYCVRDGGYWGQGTTLTVSS
VL: DVLMTQTPLSLPVSLGDQASISCRSSQSIVHNNGNTYLEWYLQKPGQSPKLLIYKVSNRFSGVPDRFSGSGSGTDFTLKISRVEAEDLGVYYCFQGSHVPLTFGGGTKLELK
notes: murine antibody
- binding result (hGal3 peptide 2): binds
- binding result (hGal3 peptide 7): binds
- GAL3-TIM3 Blocking @ 3 ug/mL [2]: 19%
- Kd [3]: 2.06 nM
